Experimental findings from patent US20260108607A1 (BEIJING DCTY BIOTECH, published 2026) are described below.

Usually Kd stands for the free concentration of one partner at which half of the binding sites on the other are occupied at equilibrium, for simple one-to-one binding. Read a high Kd as a looser complex. As usually defined, the koff is the first-order rate constant of dissociation. High values mean a short-lived complex, low ones a long-lived complex. In general, kon refers to the second-order rate constant of association.

In experiment [1] the target is T1, EGFRvIII target antigen (SPR ligand) (UniProt P00533 25-645, limits assumed).
T1 construct: also called EGFRvIII antigen
Briefly: SPR; antibody as analyte. For orientation: SPR reads the build-up and loss of mass on a sensor chip optically.

The target in experiment [2] is T1, EGFRvIII target antigen (SPR ligand). Briefly: SPR.
For experiment [3], the target named is T2, EGFR (wild type) expressed on target cells (UniProt P00533 25-1210, limits assumed).
T2 construct: whole, on cells; also called F98npEGFR; U87MG-EGFR
Briefly: flow cytometry of the subclone supernatant on F98npEGFR cells (Geom mean). (In general: Flow cytometry measures light scatter and fluorescence of single cells or particles in a stream.)

For experiment [4], the target named is T1, EGFRvIII target antigen (SPR ligand). Briefly: SPR; EGFRvIII as ligand, antibody as analyte.
The target of experiment [5] is T3, EGFRvIII overexpressed on target cells (UniProt P00533 25-1210).
T3 construct: whole, on cells; Same protein on two cell lines: F98npEGFRvIII for flow cytometry, U87MG-EGFRvIII for the killing assays; also called F98npEGFRvIII; U87MG-EGFRvIII
Briefly: flow cytometry of the subclone supernatant on F98npEGFRvIII cells (Geom mean).

B1: humanized antibody 40-2-H11 (98G2E9-VH5 + VL7) (scFv)
scFv: EVQLLESGGGLVQPGGSLKLSCAASGFTFSGYAMSWVRQTPGKGLEWVATITSGGSYTYYPDSVKGRFTISRDNSKNTLYLQMNSLRAEDTAMYYCARKDYGNYWFAYWGQGTLVTVSSGGGGSGGGGSGGGGSGGGGSDVVMTQSPLSLPVTLGDQASISCRSSQSLVHSDGNTYLHWYLQKPGQSPKLLIYKVSNRFSGVPDRFSGSGSGTDFTLKISRVEAEDVGVYFCSQTTQVPWTFGGGTKLEIK
notes: the format in the SPR assay is not clearly stated
In the case of B1, in experiment [1], binding was characterised by a dissociation constant (Kd) of 138 nM, the koff is 0.00343 s⁻¹ and the kon amounted to 24800 M⁻¹ s⁻¹. Besides, in experiment [2], the “fold reduction of affinity against the murine antibody from clone #40-2” value (shortened to “fold reduction of affinity”) was roughly 2 fold.

B2: humanized antibody 40-2-H13 (98G2E9-VH6 + VL6) (scFv)
scFv: EVQLLESGGGLVQPGGSLKLSCAASGFTFSGYAMSWVRQTPEKGLEWVATITSGGSYTYYPDSVKGRFTISRDNAKNTLYLQMNSLRAEDTAMYYCARKDYGNYWFAYWGQGTLVTVSSGGGGSGGGGSGGGGSGGGGSDVVMTQSPLSLPVTLGQQASISCRSSQSLVHSDGNTYLHWYLQKPGQSPKLLIYKVSNRFSGVPDRFSGSGSGTDFTLKISRVEAEDVGVYFCSQTTQVPWTFGGGTKLEIK
notes: as for B1
In experiment [1], B2 returned a Kd of 102 nM, a koff of 0.00301 s⁻¹ and a kon of 29400 M⁻¹ s⁻¹. In experiment [2], the “fold reduction of affinity” value was roughly 2 fold.

B3: humanized antibody 40-2-H9 (98G2E9-VH5 + VL5) (scFv)
scFv: EVQLLESGGGLVQPGGSLKLSCAASGFTFSGYAMSWVRQTPGKGLEWVATITSGGSYTYYPDSVKGRFTISRDNSKNTLYLQMNSLRAEDTAMYYCARKDYGNYWFAYWGQGTLVTVSSGGGGSGGGGSGGGGSGGGGSDVVMTQSPLSLPVTLGDPASISCRSSQSLVHSDGNTYLHWYLQRPGQSPRLLIYKVSNRFSGVPDRFSGSGSGTDFTLKISRVEAEDVGVYFCSQTTQVPWTFGGGTKLEIK
notes: as for B1
In experiment [1], B3 registered a Kd of 112 nM, a koff of 0.00307 s⁻¹ and a kon of 27400 M⁻¹ s⁻¹. The “fold reduction of affinity” value in experiment [2] was roughly 2 fold.

B4: humanized antibody 40-2-H10 (98G2E9-VH5 + VL6) (scFv)
scFv: EVQLLESGGGLVQPGGSLKLSCAASGFTFSGYAMSWVRQTPGKGLEWVATITSGGSYTYYPDSVKGRFTISRDNSKNTLYLQMNSLRAEDTAMYYCARKDYGNYWFAYWGQGTLVTVSSGGGGSGGGGSGGGGSGGGGSDVVMTQSPLSLPVTLGQQASISCRSSQSLVHSDGNTYLHWYLQKPGQSPKLLIYKVSNRFSGVPDRFSGSGSGTDFTLKISRVEAEDVGVYFCSQTTQVPWTFGGGTKLEIK
notes: as for B1
In the case of B4, in experiment [1], the Kd amounted to 135 nM, the koff was 0.00345 s⁻¹ and the kon was 25600 M⁻¹ s⁻¹. In experiment [2], the “fold reduction of affinity” value was roughly 2 fold.

B5: humanized antibody 40-2-H12 (98G2E9-VH6 + VL5) (scFv)
scFv: EVQLLESGGGLVQPGGSLKLSCAASGFTFSGYAMSWVRQTPEKGLEWVATITSGGSYTYYPDSVKGRFTISRDNAKNTLYLQMNSLRAEDTAMYYCARKDYGNYWFAYWGQGTLVTVSSGGGGSGGGGSGGGGSGGGGSDVVMTQSPLSLPVTLGDPASISCRSSQSLVHSDGNTYLHWYLQRPGQSPRLLIYKVSNRFSGVPDRFSGSGSGTDFTLKISRVEAEDVGVYFCSQTTQVPWTFGGGTKLEIK
notes: as for B1
For the molecule B5, in experiment [1], the Kd was 102 nM, the koff came to 0.00266 s⁻¹ and the kon came out at 26000 M⁻¹ s⁻¹. Moreover, in experiment [2], the “fold reduction of affinity” value is roughly 2 fold.

B6: murine antibody 20-2-4 (clone 88A3C8) (antibody, V domains shown)
VH: EVQLQQSGAELVRPGALVKLSCKASGFNIKDYYMHWVKQRPEQGLEWIGWIDPENGNTIYDPKFQGKASITADTSSNTAYLQLSSLTSEDTAVYYCARGWFAYWGQGTLVTVSA
VL: DILMTQSPSSLAMSVGQKVTMSCKSSQSLLNSSNQKNHLAWYQQKPGQSPKLLVYFASTRASGVPDRFIGSGSGTDFTLTISSVQAEDLADYFCQQHYSTPLTFGAGTKLELK
notes: Murine monoclonal antibody purified from the subclone supernatant; also called clone #4
Regarding B6, the binding result in experiment [3] is recorded as “no binding”. Also, in experiment [4], the dissociation rate constant (koff) stood at 0.00864 s⁻¹.

B7: murine antibody 20-2-28 (clone 84C3G8H7) (antibody, V domains shown)
VH: EVQLQQSGAELVRPGALVKLSCKASGFNIKDYYMHWVKQRPEQGLEWIGWIDPENGNTIYDPKFQGKASITADTSSNTAYLQLSSLTSEDTAVYYCARGWFAYWGQGTLVTVSA
VL: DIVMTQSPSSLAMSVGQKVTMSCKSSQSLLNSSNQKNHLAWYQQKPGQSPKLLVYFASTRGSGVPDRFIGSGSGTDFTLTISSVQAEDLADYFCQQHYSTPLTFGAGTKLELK
notes: Murine monoclonal antibody purified from the subclone supernatant; also called clone #28
Regarding B7, the binding result in experiment [3] is “no binding”. The molecule further returned a koff in experiment [4] of 0.0165 s⁻¹.

B8: 20-2-55 (antibody, V domains shown)
VH: QIQLQQSGPELVKPGASVKISCKASGYSFTDYYINWVKQKPGQGLEWIGWIYPGSGNTKYNEKFKGKATLTVDTSSSTAYMQLNSLTSEDTAVYFCARSSRCDFWGQGTTLTVSS
VL: DIQMTQSASSFSVSLGDSVTITCKASEDIYNRLAWYQQKPGNTPRLLISGATSLETGVPSRFSGSGSGKDYTLSITSLQTEDVATYYCQQYWSSPLTFGSGTKLELK
notes: also called 136C11E7
Consider B8, for which the binding result in experiment [3] is “no binding”; in experiment [5], “binds”.

B9: 20-2-13 (antibody, V domains shown)
VH: QVQLQQPGAELVKPGASVKLSCKASGYSFTRYWMHWVKQRPGQGLEWIGEINPSNGRANYNEKFMSKATLTVDKSSSTAYMQLSSLTSEDSAVYYCARGREITTGFAYWGQGTLVTVSA
VL: SIVMTQTPKFLLVSAGDRVTITCKASQSVSNDVVWYQQKPGQSPKLLIYYASNRYTGVPDRFTGSGYGTDFTFTITTVQAEDLAVYFCQQDYSSPWTFGGGTKLEIK
notes: also called 90F6C1
Regarding B9, the binding result in experiment [3] was “no binding”; in experiment [5] it was “binds”.

B10: murine antibody 20-2-1 (clone 83F7B2) (antibody, V domains shown)
VH: QIQLVQSGPELKKPGETVKISCKASGYTFTDFSMHWVKQAPGKGLKWMGWINTETGEPSYADDFKGRFAFSLETSASTAYLQINNLKNEDTATYFCANYGYDVRGDYWGQGTTLTVSS
VL: EIVLTQSPTTMAASPGEKITITCSASSSISSNYLHWYQQKPGFSPKLLIYGTSNLASGVPARFSGSGSGTSYSLTIGTMEAEDVATYYCHQGSSIPLTFGAGTKLELK
notes: Murine monoclonal antibody purified from the subclone supernatant
Consider B10, for which the binding result in experiment [3] is “no binding”. Further, in experiment [4], the Kd stood at 23.7 nM, the koff was 0.00119 s⁻¹ and the kon worked out at 50100 M⁻¹ s⁻¹.

B11: 20-2-7 (antibody, V domains shown)
VH: QIQLVQSGPELKKPGETVKISCKASGYTFTDYSIHWVKQAPGKGLKWMGWINTETGEPTYADDFKGRFAFSLETSASTAYLQINNLKNEDTATYFCSNYGYDVRGDYWGQGTTLTVSS
VL: EIVLTQSPTTMAASPGENITITCSASSGISSNYLHWYQQKPGFSPELLIYSTSNLASGVPARFSGSGSGTSYSLTIGTMEAEDVATYYCHQGSDIPLTFGAGTRLELK
notes: also called 89C2A11
Take B11: the values for the binding result in experiment [3] and in experiment [5] were “no binding” and “binds”, respectively.
